From the supplement of paper PMC10899765

Experiments:
Settings in all cases: 20 nM; 72 h
[1] = system: MCF10A; test: percent viability (nuclei count relative to siNT); higher = more viable cells
Protocol: (§1)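 After 72 h, cells were fixed and stained with Hoechst and anti-fibrillarin, and nucleoli per nucleus were counted with CellProfiler. Values are plate-adjusted percent effect for the one-nucleolus and 5+ nucleoli phenotypes, normalised to siNT (0%) and to the positive controls siNOL11 or siKIF11 (100%), as the mean of biological triplicates. Percent viability is the nuclei count relative to siNT.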

[2] = system: MCF10A; test: 5+ nucleoli phenotype percent effect (relative to siNT 0% and siKIF11 100%); higher = more cells with five or more nucleoli
Protocol: as §1

[3] = system: MCF10A; test: one-nucleolus phenotype percent effect (relative to siNT 0% and siNOL11 100%); higher = more cells with one nucleolus (ribosome biogenesis inhibition)
Protocol: as §1

Sequence: AGUGGUUCUUAACAGUUCAACAGUU [hsa-miR-203a-5p]
- percent viability [1]: 150%
- 5+ nucleoli phenotype percent effect [2]: 60.5%
- one-nucleolus phenotype percent effect [3]: -32.6%

Sequence: CCGGGAGAAGGAGGUGGCCUGG [hsa-miR-6746-5p]
- percent viability [1]: 50.3%
- 5+ nucleoli phenotype percent effect [2]: 61.4%
- one-nucleolus phenotype percent effect [3]: -15.9%

Sequence: AGAUGUCCAGCCACAAUUCUCG [hsa-miR-2964a-5p]
- percent viability [1]: 30.3%
- 5+ nucleoli phenotype percent effect [2]: -43.9%
- one-nucleolus phenotype percent effect [3]: 39.4%

Sequence: UUGUGAAGAAAGAAAUUCUUA [hsa-miR-3611]
- percent viability [1]: 53.1%
- 5+ nucleoli phenotype percent effect [2]: -15.1%
- one-nucleolus phenotype percent effect [3]: 12.5%

Sequence: CCUCCUGAUGAUUCUUCUUC [hsa-miR-3653-5p]
- percent viability [1]: 159%
- 5+ nucleoli phenotype percent effect [2]: 32.7%
- one-nucleolus phenotype percent effect [3]: -22.7%

Sequence: UCUGGCAAGUAAAAAACUCUCAU [hsa-miR-3128]
- percent viability [1]: 24.9%
- 5+ nucleoli phenotype percent effect [2]: -13.6%
- one-nucleolus phenotype percent effect [3]: 10.4%

Sequence: AAUUUACUCUGCAAUCUUCUCC [hsa-miR-4699-3p]
- percent viability [1]: 87.9%
- 5+ nucleoli phenotype percent effect [2]: -0.943%
- one-nucleolus phenotype percent effect [3]: -12.5%

Sequence: AGGACCUUCCCUGAACCAAGGA [hsa-miR-659-5p]
- percent viability [1]: 40.3%
- 5+ nucleoli phenotype percent effect [2]: -33.7%
- one-nucleolus phenotype percent effect [3]: 34.3%

Sequence: CAUCUUCCAGUACAGUGUUGGA [hsa-miR-141-5p]
- percent viability [1]: 64.8%
- 5+ nucleoli phenotype percent effect [2]: -4.79%
- one-nucleolus phenotype percent effect [3]: -9.13%

Sequence: AAAUAUAUAUAUAUAUGUACGUAU [hsa-miR-1277-5p]
- percent viability [1]: 47.1%
- 5+ nucleoli phenotype percent effect [2]: 64.2%
- one-nucleolus phenotype percent effect [3]: -29.6%

Sequence: UUCACAGUGGCUAAGUUCUGC [hsa-miR-27b-3p]
- percent viability [1]: 128%
- 5+ nucleoli phenotype percent effect [2]: -0.0856%
- one-nucleolus phenotype percent effect [3]: -13.3%

Sequence: GUAGGUGACAGUCAGGGGCGG [hsa-miR-6800-5p]
- percent viability [1]: 33.9%
- 5+ nucleoli phenotype percent effect [2]: -0.87%
- one-nucleolus phenotype percent effect [3]: 1.11%

Sequence: AGUGCCUGCUAUGUGCCAGGCA [hsa-miR-1271-3p]
- percent viability [1]: 39.3%
- 5+ nucleoli phenotype percent effect [2]: 4.16%
- one-nucleolus phenotype percent effect [3]: -6.99%

Sequence: AAAAGUAAUUGCGGUUUUUGCC [hsa-miR-548o-5p]
- percent viability [1]: 119%
- 5+ nucleoli phenotype percent effect [2]: 43.1%
- one-nucleolus phenotype percent effect [3]: -26.8%

Sequence: UGAUCAGGCAAAAUUGCAGACU [hsa-miR-4772-5p]
- percent viability [1]: 17%
- 5+ nucleoli phenotype percent effect [2]: 47.2%
- one-nucleolus phenotype percent effect [3]: 9.01%

Sequence: AUGGGGUGAGAUGGGGAGGAGCAGC [hsa-miR-6812-5p]
- percent viability [1]: 23.7%
- 5+ nucleoli phenotype percent effect [2]: -19.9%
- one-nucleolus phenotype percent effect [3]: 12.2%

Sequence: UUGGCCACCACACCUACCCCUU [hsa-miR-4701-5p]
- percent viability [1]: 35.9%
- 5+ nucleoli phenotype percent effect [2]: 19.1%
- one-nucleolus phenotype percent effect [3]: 1.71%

Sequence: AUUGACACCUCUGUGAGUGGA [hsa-miR-514b-3p]
- percent viability [1]: 32.6%
- 5+ nucleoli phenotype percent effect [2]: -12.5%
- one-nucleolus phenotype percent effect [3]: 16.1%

Sequence: UCUUUUCUUUGAGACUCACU [hsa-miR-627-3p]
- percent viability [1]: 34.1%
- 5+ nucleoli phenotype percent effect [2]: 21.8%
- one-nucleolus phenotype percent effect [3]: -15.6%

Sequence: AUGGGUGAUGGGUGUGGUGU [hsa-miR-4701-3p]
- percent viability [1]: 13.3%
- 5+ nucleoli phenotype percent effect [2]: -25%
- one-nucleolus phenotype percent effect [3]: 47.1%

Sequence: UGAAGUACCAGCUACUCGAGAG [hsa-miR-5585-5p]
- percent viability [1]: 36.7%
- 5+ nucleoli phenotype percent effect [2]: -8.83%
- one-nucleolus phenotype percent effect [3]: -3.33%

Sequence: AGGGGCUGGCUUUCCUCUGGUC [hsa-miR-185-3p]
- percent viability [1]: 22.6%
- 5+ nucleoli phenotype percent effect [2]: -3.46%
- one-nucleolus phenotype percent effect [3]: 49.9%

Sequence: GGGGCGCGGCCGGAUCG [hsa-miR-3178]
- percent viability [1]: 93.3%
- 5+ nucleoli phenotype percent effect [2]: 51.5%
- one-nucleolus phenotype percent effect [3]: -32.2%

Sequence: UGGGGGAGCCAUGAGAUAAGAGCA [hsa-miR-4723-5p]
- percent viability [1]: 43.6%
- 5+ nucleoli phenotype percent effect [2]: 2.14%
- one-nucleolus phenotype percent effect [3]: 21.2%

Sequence: UGACUGCCUCACUGACCACUU [hsa-miR-5002-3p]
- percent viability [1]: 50.5%
- 5+ nucleoli phenotype percent effect [2]: -20.8%
- one-nucleolus phenotype percent effect [3]: -1.84%

Sequence: AAUGUGGAAGUGGUCUGAGGCAU [hsa-miR-4657]
- percent viability [1]: 30.7%
- 5+ nucleoli phenotype percent effect [2]: 6.84%
- one-nucleolus phenotype percent effect [3]: 10.1%

Sequence: AGUUUUGCAGGUUUGCAUUUCA [hsa-miR-19b-2-5p]
- percent viability [1]: 96.7%
- 5+ nucleoli phenotype percent effect [2]: -10.8%
- one-nucleolus phenotype percent effect [3]: 21.2%

Sequence: UGAGAACUGAAUUCCAUGGGUU [hsa-miR-146a-5p]
- percent viability [1]: 51.1%
- 5+ nucleoli phenotype percent effect [2]: -31.6%
- one-nucleolus phenotype percent effect [3]: 9.23%

Sequence: CACCCAGAUCUGCGGCCUAAU [hsa-miR-1295b-5p]
- percent viability [1]: 29.9%
- 5+ nucleoli phenotype percent effect [2]: -30.7%
- one-nucleolus phenotype percent effect [3]: 34.4%
